Measurements published in US20230121197A1, “ANTIBODIES SPECIFICALLY BINDING THE CARBOXYMETHYLATED CATALYTIC SUBUNIT OF PROTEIN PHOSPHATASE 2A” (Medizinische Universität Wien, priority 2020, published 2023).

T1: HA-PP6c (Mus musculus, UniProt Q9CQR6)
T1 construct: expressed in transfected cells; host or cells: NIH3T3 mouse fibroblasts, retroviral pBabe hygro HA-PP6c
T1 sequence (Q9CQR6 1-305): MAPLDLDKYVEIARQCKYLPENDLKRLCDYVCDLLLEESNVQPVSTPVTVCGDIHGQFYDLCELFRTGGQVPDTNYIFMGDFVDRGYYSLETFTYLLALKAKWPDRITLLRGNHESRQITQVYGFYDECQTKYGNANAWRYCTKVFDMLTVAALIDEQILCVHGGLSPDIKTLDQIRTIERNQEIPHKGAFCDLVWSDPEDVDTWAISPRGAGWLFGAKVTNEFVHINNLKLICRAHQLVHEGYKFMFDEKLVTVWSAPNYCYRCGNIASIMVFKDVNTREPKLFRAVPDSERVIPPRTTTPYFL

T2: PP2Ac C-terminal peptide meL309, ac-HVTRRTPDYFL-CH3 (α-carboxymethylated) (human, SMILES …)
T2 construct: also called Y307-meL309; mePP2Ac
T2 peptide: Ac-HVTRRTPDYFL-OMe

B1: 7C10-C5: α-carboxymethylation specific mouse monoclonal IgG1 antibody from single clone hybridoma 7C10-C5 (DSM ACC3350) (antibody)
heavy: MYRMQLLSCIALSLALVTNSDVQLQESGPGLVKPSQSLSLTCSVTGYSITSGYYWNWIRQFPGNKLEWMGYISYDGSNNYNPSLKNRISITRDTSKNQFFLKLNSVTTEDTATYYCAGRFAYWGQGTLVTVSAAKTTAPSVYPLAPVCGDTTGSSVTLGCLVKGYFPEPVTLTWNSGSLSSGVHTFPAVLQSDLYTLSSSVTVTSSTWPSQSITCNVAHPASSTKVDKKIEPRGPTIKPCPPCKCPAPNLLGGPSVFIFPPKIKDVLMISLSPIVTCVVVDVSEDDPDVQISWFVNNVEVHTAQTQTHREDYNSTLRVVSALPIQHQDWMSGKEFKCKVNNKDLPAPIERTISKPKGSVRAPQVYVLPPPEEEMTKKQVTLTCMVTDFMPEDIYVEWTNNGKTELNYKNTEPVLDSDGSYFMYSKLRVEKKNWVERNSYSCSVVHEGLHNHHTTKSFSRTPGK
light: MDMRVPAQLLGLLLLWLSGARCDVLMTQTPLSLPVSLGDQASISCRSSQSIVHSNGNTYLEWYLQKPGQSPKLLIYKVSNRFSGVPDRFSGSGSGTDFTLKINRVEAEDLGVYYCFQGSHVPWTFGGGTKLEIKADAAPTVSIFPPSSEQLTSGGASVVCFLNNFYPKDINVKWKIDGSERQNGVLNSWTDQDSKDSTYSMSSTLTLTKDEYERHNSYTCEATHKTSTSPIVKSFNRNEC
modifications: Amino acid sequence of the recombinant 7C10-C5 heavy chain; Amino acid sequence of the recombinant 7C10-C5 light chain
B2: 7C10-C5 monoclonal antibody (antibody, V domains shown)
VH: DVQLQESGPGLVKPSQSLSLTCSVTGYSITSGYYWNWIRQFPGNKLEWMGYISYDGSNNYNPSLKNRISITRDTSKNQFFLKLNSVTTEDTATYYCAGRFAYWGQGTLVTVSA
VL: DVLMTQTPLSLPVSLGDQASISCRSSQSIVHSNGNTYLEWYLQKPGQSPKLLIYKVSNRFSGVPDRFSGSGSGTDFTLKINRVEAEDLGVYYCFQGSHVPWTFGGGTKLEIK
notes: Used as hybridoma culture supernatant (ELISA, Western blot, IHC) or at 50 µg/mL (SPR); also called 7C10 X63; clone 7C10-C5

Tests used:
HA-PP6c = molecular target: T1, HA-PP6c; test: Immunoblotting of anti-HA immunoprecipitates of NIH3T3 cells, PP6c; assay type: binding
Text: The catalytic subunits of protein phosphatase 4 (PP4c) and 6 (PP6c) are closely related to PP2Ac with approximately 50% sequence identity. PP2Ac, PP4c and PP6c share the C-terminal DYFL or YFL motif, respectively (FIG. 8A). Therefore, a potential cross-reactivity of 7C10-C5 with α-carboxymethylated PP4c and/or PP6c was examined and compared to another anti-carboxymethyl-PP2Ac antibody 2A10. 2A10 is a carboxymethyl-PP2Ac specific antibody that has been raised against a larger C-terminal PP2Ac peptide (amino acids 302-309, carboxymethylated Leu^309) and that has been shown before to cross-react with α-carboxymethylated PP4c (Lee (2014), Biochem Biophys Res Commun 452, 42-47). HA tagged human PP2Ac a, mouse HA PP4c or mouse HA PP6c from NIH3T3 mouse fibroblasts stably expressing these HA-tagged proteins were immunoprecipitated. The precipitated proteins were then analyzed by immunoblotting with anti-carboxymethyl-PP2Ac antibodies 7C10-C5 or 2A10.
Specifically, 500 μl corresponding to 1 mg of whole cell protein lysates of NIH3T3 mouse fibroblasts were incubated with anti-hemagglutinin (HA) antibody (clone 12CA5) crosslinked to BSA-coated protein A-Sepharose beads (GE-Healthcare) to immunoprecipitate HA-epitope tagged PP2Ac, PP4c or PP6c for 1 h. […]

[1] = molecular target: T2, PP2Ac C-terminal peptide meL309, …; test: ELISA, peptide coated at 2 µg/ml, supernatant 1:50
Method: Nunc Medisorp 96-well ELISA flat-bottom plates were coated with peptides L309 (ac-[…]) (SEQ ID NO:18), meL309 (ac-[…]-CH₃) (SEQ ID NO:18) or amL309 (ac-[…]-NH₂) (SEQ ID NO:18) at 2 μg/ml in TBS at 4° C. over-night. After washing once with TBS, the wells were incubated with 2% BSA in TBS for 1 h at RT. After washing once with TBS, the wells were incubated with single clone hybridoma cell culture supernatant clone 7C10-C5 1:50 (˜1 μg/ml) in 1% BSA/TBS for 1 h at RT. After washing twice with TBS, wells were incubated with anti-mouse HRP-coupled secondary antibody for 1 h at RT, followed by washing 3× in PBS. Bound antibodies were detected by colorimetric reaction with 3,3′,5,5′-Tetramethylbenzidine as substrate, and absorbance was measured at 450 nm. Values were normalized to meL309 which was set to 1. Average and standard deviation of N=8 experiments are shown. Statistical significance was assessed using ANOVA followed by Tukey's HSD as a post-hoc test. P values are indicated with *, **, ***, which correspond to values of <0.05, <0.01, and <0.001.
Specifically, flat-bottom Nunc-Immuno Medisorp 96-well ELISA plates (Thermo; 467320) were coated o/n at 4° C. with 50 μl of either a peptide of the sequence ac-[…]-OH (L309; unmodified) (SEQ ID NO:18) at a concentration of 2 μg/ml, a peptide of the sequence ac-[…]-CH₃ (meL309; methylated) (SEQ ID NO:18) at a concentration of 2 μg/ml in TBS (137 mM NaCl (AppliChem, #131659, 2.7 mM KCl (AppliChem, #131494), 24.8 mM Tris (AppliChem, #A1086), pH 7.4 with HCl) or a peptide of the sequence ac-[…]-NH₂ (amL309; amidated) (SEQ ID NO:18) at a concentration of 2 μg/ml in TBS. Of note, the “ac-” in the peptides described here and in other Examples refers to an acetylated N-terminus. Said acetylation neutralizes the positive charge at the N-terminus, and the free charged N-terminus is thereby removed.

Molecule | detection of PP6c (HA-PP6c; Western blot of HA immunoprecipitates) | binding to carboxymethylated PP2Ac stronger than to carboxymethylated PP6c (HA-PP6c; Western blot, suggested since no discernable signal) | fold higher ELISA signal intensity than with the amidated peptide (amL309) [1] [fold] | fold higher ELISA signal intensity than with the non-methylated peptide (L309) [1] [fold] | fold higher ELISA signal intensity than with the α-carboxymethylated PP4c peptide (meL307) [1] [fold]
B1 | did not detect | 100-fold or even 500-fold |  |  | 
B2 |  |  | 6 | 26 | ≥ 10
